Test [1] addresses T1, human E-selectin on CHO-K1 transfectant cells (human, UniProt P16581 22-610).
T1 construct: whole, on cells; also called CHO-E Selectin; CHO-E selectin
T1 sequence (looked up): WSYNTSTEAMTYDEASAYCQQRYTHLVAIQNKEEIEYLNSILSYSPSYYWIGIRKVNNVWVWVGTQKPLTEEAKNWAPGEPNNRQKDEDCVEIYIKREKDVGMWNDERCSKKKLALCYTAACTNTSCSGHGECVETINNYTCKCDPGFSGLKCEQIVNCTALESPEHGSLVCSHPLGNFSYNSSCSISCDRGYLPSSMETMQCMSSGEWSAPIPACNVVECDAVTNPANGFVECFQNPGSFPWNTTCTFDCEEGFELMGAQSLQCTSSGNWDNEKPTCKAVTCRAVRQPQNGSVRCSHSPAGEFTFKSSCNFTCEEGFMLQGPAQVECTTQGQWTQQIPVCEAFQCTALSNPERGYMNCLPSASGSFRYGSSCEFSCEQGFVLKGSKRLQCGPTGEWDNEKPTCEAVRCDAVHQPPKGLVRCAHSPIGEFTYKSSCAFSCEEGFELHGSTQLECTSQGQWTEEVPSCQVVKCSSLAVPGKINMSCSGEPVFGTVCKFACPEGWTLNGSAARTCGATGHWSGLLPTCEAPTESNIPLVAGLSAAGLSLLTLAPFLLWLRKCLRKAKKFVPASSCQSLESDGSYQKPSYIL
The test can be described thus: flow cytometry on CHO-K1 transfectants. On the procedure:
(§1) 2×10⁵ cells were incubated on ice for 30 minutes in FACS buffer (PBS containing 1% bovine serum albumin and 0.2% sodium azide) with 1 μg of test antibody or buffer alone. After incubation, cells were washed three times with FACS buffer and subsequently incubated for another 30 minutes with PE-conjugated donkey anti-human IgG F(ab′)2 fragment (Jackson ImmunoResearch). After washing three times with FACS buffer, relative cell fluorescence was analyzed by flow cytometry using a Cyan (DAKOCytomation).

The target in test [2] is T2, human P-selectin on CHO-K1 transfectant cells (human, UniProt P16109 42-830).
T2 construct: whole, on cells; also called CHO-P selectin
T2 sequence (looked up): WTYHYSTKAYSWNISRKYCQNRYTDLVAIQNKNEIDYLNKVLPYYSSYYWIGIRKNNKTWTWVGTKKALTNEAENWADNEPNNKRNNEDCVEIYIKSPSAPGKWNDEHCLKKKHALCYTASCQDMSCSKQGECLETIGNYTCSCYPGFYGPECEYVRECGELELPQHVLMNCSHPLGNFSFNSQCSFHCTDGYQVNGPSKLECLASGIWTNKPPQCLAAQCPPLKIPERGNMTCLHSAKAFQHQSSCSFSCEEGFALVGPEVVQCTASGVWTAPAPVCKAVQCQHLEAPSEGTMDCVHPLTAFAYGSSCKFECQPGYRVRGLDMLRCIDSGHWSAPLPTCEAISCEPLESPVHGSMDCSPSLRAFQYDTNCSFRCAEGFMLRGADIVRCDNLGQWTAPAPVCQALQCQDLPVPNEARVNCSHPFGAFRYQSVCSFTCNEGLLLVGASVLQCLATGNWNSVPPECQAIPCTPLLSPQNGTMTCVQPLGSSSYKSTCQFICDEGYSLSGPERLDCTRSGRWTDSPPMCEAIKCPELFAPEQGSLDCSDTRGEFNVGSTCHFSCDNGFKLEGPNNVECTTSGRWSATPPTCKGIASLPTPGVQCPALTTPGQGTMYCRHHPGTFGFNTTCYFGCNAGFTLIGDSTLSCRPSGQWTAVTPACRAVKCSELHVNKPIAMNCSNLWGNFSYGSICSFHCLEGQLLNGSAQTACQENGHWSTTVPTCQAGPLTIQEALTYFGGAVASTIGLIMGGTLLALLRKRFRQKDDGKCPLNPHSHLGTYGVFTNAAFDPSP
Put plainly: flow cytometry on CHO-K1 transfectants; panel H read as CHO-P selectin. As to the method:
as §1

Test [3] addresses T3, recombinant soluble human L-selectin (human, UniProt P14151 39-332).
T3 construct: extracellular domain; The residue numbers 1-279 count on the mature protein, not on the precursor
T3 sequence (looked up): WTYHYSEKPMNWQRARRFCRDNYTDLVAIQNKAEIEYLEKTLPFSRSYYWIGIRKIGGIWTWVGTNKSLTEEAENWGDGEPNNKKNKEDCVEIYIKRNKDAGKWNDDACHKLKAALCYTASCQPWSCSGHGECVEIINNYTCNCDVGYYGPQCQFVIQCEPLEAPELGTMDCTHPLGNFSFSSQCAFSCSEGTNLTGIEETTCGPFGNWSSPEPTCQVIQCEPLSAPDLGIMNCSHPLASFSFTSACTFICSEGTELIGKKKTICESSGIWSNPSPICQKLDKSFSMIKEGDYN
Put plainly: competition ELISA on coated soluble human L-selectin; competitor of biotinylated ChD3. On the procedure:
ELISA plates were coated with 0.25 μg/ml soluble human L-selectin in 0.2 M sodium carbonate buffer (pH 9.4) and blocked with SuperBlock blocking buffer (Pierce). […] As controls, humanized anti-human L-selectin monoclonal antibody HuDREG55 (Co et al., Immunotechol. 4:253-266 (1999)) and humanized anti-human HLA-DR monoclonal antibody Hu1D10 (Kostelny et al., Int. J. Cancer 93:556-565 (2001)) were used. ELISA plates were incubated at room temperature for 2 hr. After washing the wells with Washing Buffer (PBS containing 0.1% Tween 20), 100 μl of 1 μg/ml HRP-conjugated streptavidin (Pierce) in ELISA buffer was added to each well. ELISA plates were incubated at room temperature for 60 min and washed with Washing Buffer. For color development, 100 μl/well of ABTS substrate was added. Color development was stopped by adding 100 μl/well of 2% oxalic acid. Absorbance was read at 415 nm.

Test [4] deals with T2, human P-selectin on CHO-K1 transfectant …. The test can be described thus: flow cytometry on CHO-K1 transfectants. On the procedure: as §1

B1: chicken-human chimeric anti-L-selectin antibody D3 (antibody, V domains shown)
VH: AVTLDESGGGLQTPGGALSLVCRASGFSIGSYNMHWVRQAPGKGLEWVAGISGAGSRTAWYGAAVKGRATISRDNGQSTVRLQLNNLRAEDTGTYYCAKDYGGSGSPWYGWGAASWIDAWGHGTEVIVSS
VL: ALTQPASVSANPGETVKITCSGGSYYGWYQQKSPGSAPVTVIYDNDKRPSDIPSRFSGSKSGSTGTLTITGVQAEDEAVYFCGSADSAYVGIFGAGTTLTVL
notes: Transiently expressed in 293-H cells; also called ChD3; chimeric D3
Consider B1, for which the binding result in test [1] and in test [2] was “no binding (tested: 1 µg of test antibody)” throughout. In addition, the IC50 in test [3] stood at 3.4 µg/mL.

B2: humanized anti-L-selectin antibody D3 (antibody, V domains shown)
VH: EVQLLESGGGLVQPGGSLRLSCAASGFSIGSYNMHWVRQAPGKGLEWVAGISGAGSRTAWYGAAVKGRATISRDNAKNTVYLQMNSLRAEDTAVYYCAKDYGGSGSPWYGWGAASWIDAWGQGTLVTVSS
VL: SSELTQDPAVSVALGQTVRITCSGGSYYGWYQQKPGQAPVTVIYDNDKRPSDIPSRFSGSKSGSTGSLTITGAQAEDEADYYCGSADSAYVGIFGGGTKLTVL
notes: Transiently expressed in 293-H cells; also called HuD3; humanized D3
For the molecule B2, the binding result in test [1] and in test [4] was “no binding (tested: 1 µg of test antibody)” in each case. Further, the half-maximal inhibitory concentration (IC50) in test [3] came to 2.9 µg/mL.

Values taken from US20040260068A1 (published 2004).
